Results as given in patent US20130177500A1 (TRUSTEES OF BOSTON UNIVERSITY, published 2013).
Each block holds one molecule with its values, some of them ahead of it.

Tests used:
[1] = molecular target: T1, human dual endothelin-1/VEGF signal peptide receptor (hDEspR), on cells and tissue (human) (UniProt B0L3A2); assay: cell-based or functional assay
T1 sequence: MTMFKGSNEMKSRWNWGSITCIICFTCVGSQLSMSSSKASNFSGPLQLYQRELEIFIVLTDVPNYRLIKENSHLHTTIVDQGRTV

[2] = molecular target: T1, human dual endothelin-1/VEGF signal peptide receptor (hDEspR), on cells and tissue (human); assay: isotype-antibody microbubbles on HUVECs, 800× MB:cell ratio, microscopy (negative control)
[3] = molecular target: T2, human dual endothelin-1/VEGF signal peptide receptor (hDEspR), on cells and tissue (human, UniProt B0L3A2 1-85); assay: cell-based or functional assay
T2 sequence: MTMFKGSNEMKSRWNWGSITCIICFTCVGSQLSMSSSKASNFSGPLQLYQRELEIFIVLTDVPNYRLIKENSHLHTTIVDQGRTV

[4] = molecular target: T3, antigenic hDEspR 9-aa peptide (NH2-terminal 9 amino acids of hDEspR) (human); assay: indirect ELISA on the plate-coated antigenic 9-aa hDEspR peptide; two-fold serial dilutions of hybridoma supernatant holding mAb at 1 µg/ml (1 = 1/2 ... 12 = 1/4096); OD450
T3 construct: Free, unconjugated peptide coated on ELISA wells; The KLH conjugate was used only for immunisation; also called DEspR(1-9); free antigenic peptide
T3 peptide: MTMFKGSNE

% CFC, BRCA1 S1497 (Kinex antibody microarray, 30 min, 10 nM ligand) [1]: 32 % CFC
% CFC, CDK1/2 T14/Y15 (Kinex antibody microarray, 30 min, 10 nM ligand) [1]: 53 % CFC
% CFC, CDK1/2 Y15 (Kinex antibody microarray, 30 min, 10 nM ligand) [1]: 281 % CFC
% CFC, ERK1/2 T202 + Y204; T185 + Y187 (Kinex antibody microarray, 30 min, 10 nM ligand) [1]: 135 % CFC
% CFC, FAK Panspecific (Kinex antibody microarray, 30 min, 10 nM ligand) [1]: 205 % CFC
% CFC, FAK S722 (Kinex antibody microarray, 30 min, 10 nM ligand) [1]: 55 % CFC
% CFC, FAK S732 (Kinex antibody microarray, 30 min, 10 nM ligand) [1]: 62 % CFC
% CFC, Met Panspecific (Kinex antibody microarray, 30 min, 10 nM ligand) [1]: 384 % CFC
% CFC, PCNA Panspecific (Kinex antibody microarray, 30 min, 10 nM ligand) [1]: -47 % CFC
% CFC, PKCa T638/T641 (Kinex antibody microarray, 30 min, 10 nM ligand) [1]: 137 % CFC
% CFC, PKCe Panspecific (Kinex antibody microarray, 30 min, 10 nM ligand) [1]: 103 % CFC
% CFC, Raf1 S259 (Kinex antibody microarray, 30 min, 10 nM ligand) [1]: 12 % CFC
% CFC, SHP2 S576 (Kinex antibody microarray, 30 min, 10 nM ligand) [1]: 14 % CFC
% CFC, STAT1 S727 (Kinex antibody microarray, 30 min, 10 nM ligand) [1]: 86 % CFC
% CFC, STAT1 Y701 (Kinex antibody microarray, 30 min, 10 nM ligand) [1]: 95 % CFC
% CFC, STAT3 S727 (Kinex antibody microarray, 30 min, 10 nM ligand) [1]: 133 % CFC
% CFC, Shc1 or ShcA Y349, Y350 (Kinex antibody microarray, 30 min, 10 nM ligand) [1]: 9 % CFC
% CFC, Smad 1/5/9 S463 + S465/S465 + S467 (Kinex antibody microarray, 30 min, 10 nM ligand) [1]: 18 % CFC
% CFC, Src Y418 (Kinex antibody microarray, 30 min, 10 nM ligand) [1]: -11 % CFC
% CFC, Src Y529 (Kinex antibody microarray, 30 min, 10 nM ligand) [1]: -20 % CFC
Molecule: endothelin-1 (from UniProt P05305 53-73) (ligand)

% of HUVECs with bound MBs [2]: 6.8%
Molecule: isotype-antibody control microbubbles (MBC)

EC50, inhibition of MDA-MB-231 tumor cell invasiveness (Matrigel invasion assay) [3]: 3.55 nM
EC50, inhibition of total tube length per well (HUVEC tube formation assay) [3]: 4.34 nM
binding result [4]: binds
B1: anti-hDEspR 7C5B2 monoclonal antibody (antibody, IgG2b, V domains shown)
VH: QVQLKESGPGLVAPSQSLSITCTVSGFSLTSYDISWIRQPPGKGLEWLGVIWTGGGTNYNSAFMSRLSISKDNSKSQVFLKMNSLQTDDTAIYYCVRDRDYDGWYFDVWGAGTTVTVSS
VL: DVLMTQTPLSLPVSLGDQASISCRSSQSIVHSNGNTYLEWYLQKPGQSPKLLIYKVSNRFSGVPDRFSGSGSGTDFTLKISRVEAEDLGVYYCFQGSHVPYTFGGGTKLEIK
notes: Tested as hybridoma supernatant and as purified antibody; also called 7C5B2 antibody; 7C5B2 anti-DEspR antibody
